Publication PMC9482650, “Quantitative fragmentomics allow affinity mapping of interactomes” (Nature Communications, 2022)

What was measured:
Test in all cases: holdup assay
Design in all cases: key: below the threshold = too weak to quantify, mostly under pKd 3.1 to 4
APBA2_1, Q99767 = target: T1, APBA2_1, Q99767
T1 sequence (Q99767 563-664, limits assumed, looked up): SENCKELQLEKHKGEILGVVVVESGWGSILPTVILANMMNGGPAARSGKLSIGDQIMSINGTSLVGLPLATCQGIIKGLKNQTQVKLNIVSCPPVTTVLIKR

DFNB31_3, Q9P202 = target: T2, DFNB31_3, Q9P202
T2 sequence (Q9P202 811-907, limits assumed, looked up): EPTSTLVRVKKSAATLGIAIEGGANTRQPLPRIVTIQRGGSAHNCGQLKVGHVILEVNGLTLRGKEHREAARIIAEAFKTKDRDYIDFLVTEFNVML

DLG1_3, Q12959 = target: DLG1_3, Q12959
DLG2_2, Q15700 = target: DLG2_2, Q15700
DLG3_3, Q92796 = target: T3, DLG3_3, Q92796
T3 sequence (Q92796 374-475, limits assumed, looked up): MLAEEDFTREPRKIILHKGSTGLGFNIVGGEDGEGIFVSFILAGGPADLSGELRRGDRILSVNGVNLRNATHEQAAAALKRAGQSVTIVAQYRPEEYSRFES

DLG4_1, P78352 = target: DLG4_1, P78352
DLG4_2, P78352 = target: DLG4_2, P78352
DLG4_3, P78352 = target: DLG4_3, P78352
FRMPD2_1, Q68DX3 = target: FRMPD2_1, Q68DX3
FRMPD4, Q14CM0 = target: FRMPD4, Q14CM0
GOPC, Q9HD26 = target: GOPC, Q9HD26
GORASP2, Q9H8Y8 = target: GORASP2, Q9H8Y8
GRIP1_7, Q9Y3R0 = target: T4, GRIP1_7, Q9Y3R0
T4 sequence (Q9Y3R0 999-1096, limits assumed, looked up): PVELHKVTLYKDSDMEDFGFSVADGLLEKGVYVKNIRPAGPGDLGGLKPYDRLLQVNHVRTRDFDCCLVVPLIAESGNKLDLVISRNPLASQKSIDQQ

GRIP2_3, Q9C0E4 = target: GRIP2_3, Q9C0E4
HTRA4, P83105 = target: T5, HTRA4, P83105
T5 sequence (P83105 378-476, limits assumed, looked up): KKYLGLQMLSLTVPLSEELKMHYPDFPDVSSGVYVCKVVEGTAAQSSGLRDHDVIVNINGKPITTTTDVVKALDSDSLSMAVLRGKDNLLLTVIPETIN

Inadl_2, Q8NI35 = target: Inadl_2, Q8NI35
Inadl_8, Q8NI35 = target: Inadl_8, Q8NI35
LIMK2, P53671 = target: LIMK2, P53671
LNX1_1, Q8TBB1 = target: LNX1_1, Q8TBB1
LNX1_3, Q8TBB1 = target: LNX1_3, Q8TBB1
MAGI2_3, Q86UL8 = target: MAGI2_3, Q86UL8
MAGI2_5, Q86UL8 = target: MAGI2_5, Q86UL8
MAST2, Q6P0Q8 = target: MAST2, Q6P0Q8
NHERF3_1, Q5T2W1 = target: T6, NHERF3_1, Q5T2W1
T6 sequence (Q5T2W1 4-100, limits assumed, looked up): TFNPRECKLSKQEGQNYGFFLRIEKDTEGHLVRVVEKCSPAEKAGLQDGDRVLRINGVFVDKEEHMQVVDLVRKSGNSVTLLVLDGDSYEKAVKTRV

NHERF4_1, Q86UT5-2 = target: NHERF4_1, Q86UT5-2
NHERF4_4, Q86UT5 = target: NHERF4_4, Q86UT5
PDZD2_2, O15018 = target: T7, PDZD2_2, O15018
T7 sequence (O15018 329-429, limits assumed, looked up): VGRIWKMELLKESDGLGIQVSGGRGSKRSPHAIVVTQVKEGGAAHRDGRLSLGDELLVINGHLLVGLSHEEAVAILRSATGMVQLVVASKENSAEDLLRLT

SCRIB_1, Q14160 = target: SCRIB_1, Q14160
SCRIB_2, Q14160 = target: SCRIB_2, Q14160
SNX27, Q96L92 = target: SNX27, Q96L92
TJP3_3, O95049 = target: T8, TJP3_3, O95049
T8 sequence (O95049 375-456, limits assumed, looked up): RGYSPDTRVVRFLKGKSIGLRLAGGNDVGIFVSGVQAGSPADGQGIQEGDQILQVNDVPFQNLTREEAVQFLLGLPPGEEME

[1] = plain residues with an end cap or a label only (N-terminal biotin on a linker: gsgsgs; C-terminal amide)
[2] = plain residues with an end cap or a label only (N-terminal biotin on a linker: ttds)

Chain of DLG1_3, Q12959 (Q12959 457-571): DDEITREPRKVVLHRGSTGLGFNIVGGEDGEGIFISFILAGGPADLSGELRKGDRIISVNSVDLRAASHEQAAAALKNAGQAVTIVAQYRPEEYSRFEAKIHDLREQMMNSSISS
Chain of Inadl_2, Q8NI35 (Q8NI35 238-335): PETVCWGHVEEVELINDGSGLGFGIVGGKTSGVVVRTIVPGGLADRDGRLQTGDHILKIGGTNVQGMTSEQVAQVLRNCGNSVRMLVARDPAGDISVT
Chain of Inadl_8, Q8NI35 (Q8NI35 1425-1530): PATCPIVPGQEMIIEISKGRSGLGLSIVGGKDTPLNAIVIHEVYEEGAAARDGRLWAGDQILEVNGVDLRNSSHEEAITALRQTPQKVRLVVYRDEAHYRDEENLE
Chain of DLG4_2, P78352 (P78352 155-259): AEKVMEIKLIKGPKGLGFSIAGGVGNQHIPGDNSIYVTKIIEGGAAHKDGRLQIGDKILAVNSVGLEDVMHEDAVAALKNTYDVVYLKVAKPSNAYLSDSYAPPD
Chain of SCRIB_1, Q14160 (Q14160 718-814): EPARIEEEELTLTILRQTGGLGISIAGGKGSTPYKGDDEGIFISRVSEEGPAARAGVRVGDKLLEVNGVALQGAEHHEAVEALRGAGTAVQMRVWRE
Chain of LNX1_3, Q8TBB1 (Q8TBB1 500-596): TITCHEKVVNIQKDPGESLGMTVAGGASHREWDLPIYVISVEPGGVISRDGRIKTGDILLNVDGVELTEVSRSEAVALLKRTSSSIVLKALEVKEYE
Chain of MAGI2_3, Q86UL8 (Q86UL8 600-682): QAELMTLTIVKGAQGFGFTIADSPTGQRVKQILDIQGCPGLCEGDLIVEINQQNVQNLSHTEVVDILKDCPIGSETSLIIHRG
Chain of DLG4_3, P78352 (P78352 306-403): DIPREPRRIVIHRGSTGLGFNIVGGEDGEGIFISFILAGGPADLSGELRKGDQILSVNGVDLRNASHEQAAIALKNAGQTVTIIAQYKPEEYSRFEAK
Chain of LIMK2, P53671 (P53671 143-248): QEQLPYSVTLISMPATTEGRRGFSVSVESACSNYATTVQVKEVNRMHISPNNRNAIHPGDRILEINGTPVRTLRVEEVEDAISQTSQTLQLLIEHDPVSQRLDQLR
Chain of MAST2, Q6P0Q8 (Q6P0Q8 1099-1202): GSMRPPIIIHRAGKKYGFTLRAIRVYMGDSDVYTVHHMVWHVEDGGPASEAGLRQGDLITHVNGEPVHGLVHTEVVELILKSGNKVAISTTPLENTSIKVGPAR
Chain of LNX1_1, Q8TBB1 (Q8TBB1 261-371): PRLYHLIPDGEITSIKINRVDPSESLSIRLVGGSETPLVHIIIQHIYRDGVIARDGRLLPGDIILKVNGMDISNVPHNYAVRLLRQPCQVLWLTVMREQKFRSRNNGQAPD
Chain of FRMPD4, Q14CM0 (Q14CM0 67-160): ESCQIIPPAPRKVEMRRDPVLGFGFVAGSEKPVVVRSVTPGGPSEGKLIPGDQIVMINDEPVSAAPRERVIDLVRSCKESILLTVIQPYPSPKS
Chain of GRIP2_3, Q9C0E4 (Q9C0E4 238-339): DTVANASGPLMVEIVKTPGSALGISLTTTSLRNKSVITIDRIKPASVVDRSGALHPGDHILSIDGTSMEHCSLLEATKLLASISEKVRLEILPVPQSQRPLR
Chain of MAGI2_5, Q86UL8 (Q86UL8 915-1017): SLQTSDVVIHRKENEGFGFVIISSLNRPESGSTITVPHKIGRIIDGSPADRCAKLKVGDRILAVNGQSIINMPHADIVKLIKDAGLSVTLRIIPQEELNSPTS
Chain of DLG2_2, Q15700 (Q15700 189-283): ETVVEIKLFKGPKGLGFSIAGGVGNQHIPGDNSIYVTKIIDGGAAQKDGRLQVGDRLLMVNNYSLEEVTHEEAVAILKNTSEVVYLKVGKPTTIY
Chain of NHERF4_4, Q86UT5 (Q86UT5 464-550): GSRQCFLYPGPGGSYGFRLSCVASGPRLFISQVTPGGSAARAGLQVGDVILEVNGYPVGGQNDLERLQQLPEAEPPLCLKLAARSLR
Chain of FRMPD2_1, Q68DX3 (Q68DX3 770-861): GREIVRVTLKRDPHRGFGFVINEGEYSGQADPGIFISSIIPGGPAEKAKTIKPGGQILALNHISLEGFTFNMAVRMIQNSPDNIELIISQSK
Chain of SCRIB_2, Q14160 (Q14160 857-960): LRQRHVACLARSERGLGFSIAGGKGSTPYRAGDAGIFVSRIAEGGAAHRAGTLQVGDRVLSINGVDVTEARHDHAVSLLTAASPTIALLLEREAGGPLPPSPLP
Chain of DLG4_1, P78352 (P78352 62-152): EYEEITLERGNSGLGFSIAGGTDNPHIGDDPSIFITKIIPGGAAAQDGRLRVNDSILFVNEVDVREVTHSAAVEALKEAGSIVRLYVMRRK
Chain of NHERF4_1, Q86UT5-2 (Q86UT5 other isoform, or with tags, fused parts or gaps): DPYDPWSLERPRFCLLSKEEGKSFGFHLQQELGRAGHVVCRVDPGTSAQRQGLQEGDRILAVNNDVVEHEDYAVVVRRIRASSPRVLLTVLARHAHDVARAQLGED

YGIVQETTFDLGGDIH [MLLT4_int, P55196]
pKd (APBA2_1, Q99767; [1]): below the threshold
pKd (DFNB31_3, Q9P202; [1]): 3.83
pKd (DLG1_3, Q12959; [1]): below the threshold
pKd (DLG2_2, Q15700; [1]): below the threshold
pKd (DLG3_3, Q92796; [1]): below the threshold
pKd (DLG4_1, P78352; [1]): below the threshold
pKd (DLG4_2, P78352; [1]): below the threshold
pKd (DLG4_3, P78352; [1]): below the threshold
pKd (FRMPD2_1, Q68DX3; [1]): below the threshold
pKd (FRMPD4, Q14CM0; [1]): below the threshold
pKd (GOPC, Q9HD26; [1]): below the threshold
pKd (GORASP2, Q9H8Y8; [1]): below the threshold
pKd (GRIP1_7, Q9Y3R0; [1]): below the threshold
pKd (GRIP2_3, Q9C0E4; [1]): below the threshold
pKd (HTRA4, P83105; [1]): below the threshold
pKd (Inadl_2, Q8NI35; [1]): below the threshold
pKd (Inadl_8, Q8NI35; [1]): below the threshold
pKd (LIMK2, P53671; [1]): below the threshold
pKd (LNX1_1, Q8TBB1; [1]): below the threshold
pKd (LNX1_3, Q8TBB1; [1]): below the threshold
pKd (MAGI2_3, Q86UL8; [1]): below the threshold
pKd (MAGI2_5, Q86UL8; [1]): below the threshold
pKd (MAST2, Q6P0Q8; [1]): 4.01
pKd (NHERF3_1, Q5T2W1; [1]): below the threshold
pKd (NHERF4_1, Q86UT5-2; [1]): below the threshold
pKd (NHERF4_4, Q86UT5; [1]): 3.84
pKd (PDZD2_2, O15018; [1]): below the threshold
pKd (SCRIB_1, Q14160; [1]): 4.3
pKd (SCRIB_2, Q14160; [1]): 3.65
pKd (SNX27, Q96L92; [1]): 4.59
pKd (TJP3_3, O95049; [1]): below the threshold

VDFPPKESSL [ACVR2A, P27037]
pKd (APBA2_1, Q99767; [2]): below the threshold
pKd (DFNB31_3, Q9P202; [2]): below the threshold
pKd (DLG1_3, Q12959; [2]): 4.11
pKd (DLG2_2, Q15700; [2]): 3.84
pKd (DLG3_3, Q92796; [2]): below the threshold
pKd (DLG4_1, P78352; [2]): below the threshold
pKd (DLG4_2, P78352; [2]): 3.33
pKd (DLG4_3, P78352; [2]): 3.71
pKd (FRMPD2_1, Q68DX3; [2]): 3.82
pKd (FRMPD4, Q14CM0; [2]): below the threshold
pKd (GOPC, Q9HD26; [2]): 3.45
pKd (GORASP2, Q9H8Y8; [2]): 3.87
pKd (GRIP1_7, Q9Y3R0; [2]): 3.47
pKd (GRIP2_3, Q9C0E4; [2]): below the threshold
pKd (HTRA4, P83105; [2]): below the threshold
pKd (Inadl_2, Q8NI35; [2]): below the threshold
pKd (Inadl_8, Q8NI35; [2]): below the threshold
pKd (LIMK2, P53671; [2]): below the threshold
pKd (LNX1_1, Q8TBB1; [2]): below the threshold
pKd (LNX1_3, Q8TBB1; [2]): below the threshold
pKd (MAGI2_3, Q86UL8; [2]): below the threshold
pKd (MAGI2_5, Q86UL8; [2]): below the threshold
pKd (MAST2, Q6P0Q8; [2]): 5.05
pKd (NHERF3_1, Q5T2W1; [2]): 4.22
pKd (NHERF4_1, Q86UT5-2; [2]): 3.35
pKd (NHERF4_4, Q86UT5; [2]): below the threshold
pKd (PDZD2_2, O15018; [2]): 3.63
pKd (SCRIB_1, Q14160; [2]): 3.83
pKd (SCRIB_2, Q14160; [2]): 3.48
pKd (SNX27, Q96L92; [2]): 4.38
pKd (TJP3_3, O95049; [2]): below the threshold
